For this test, the target named is CEP-HSA (2-(ω-carboxyethyl)pyrrole derivative of HSA) (human) (UniProt P02768). Description: SPR. For orientation: In SPR one partner is held on a chip, and binding of the other changes the refractive index at the surface.

In general, Kd refers to a measure of binding affinity in units of concentration. A low value points to higher affinity. As to “CD36-Fc chimera (from UniProt P16671 1-472) (Fc fusion)”, the equilibrium dissociation constant (Kd) stood at 6.53 nM.

The substance “TLR2-Fc chimera (from UniProt O60603 21-588) (Fc fusion)” gave a Kd of 11.8 nM.

(Values after article PMC4522201.)
